Results reported in US20200123264A1 (Regeneron, published 2020).

Experiments:
Test in all cases: Luminex, myc-captured LEPR protein on beads, Ab 0.5 µg/mL
[1] = molecular target: T1, human LEPR CRH1 (D1,D2,D3)-MMH (human, UniProt P48357 22-427, limits assumed)
T1 construct: domain: CRH1-Ig (D1,D2,D3); Transiently expressed, captured from supernatant on anti-myc beads; also called CRH1-Ig (D1, D2, D3)
T1 sequence (looked up): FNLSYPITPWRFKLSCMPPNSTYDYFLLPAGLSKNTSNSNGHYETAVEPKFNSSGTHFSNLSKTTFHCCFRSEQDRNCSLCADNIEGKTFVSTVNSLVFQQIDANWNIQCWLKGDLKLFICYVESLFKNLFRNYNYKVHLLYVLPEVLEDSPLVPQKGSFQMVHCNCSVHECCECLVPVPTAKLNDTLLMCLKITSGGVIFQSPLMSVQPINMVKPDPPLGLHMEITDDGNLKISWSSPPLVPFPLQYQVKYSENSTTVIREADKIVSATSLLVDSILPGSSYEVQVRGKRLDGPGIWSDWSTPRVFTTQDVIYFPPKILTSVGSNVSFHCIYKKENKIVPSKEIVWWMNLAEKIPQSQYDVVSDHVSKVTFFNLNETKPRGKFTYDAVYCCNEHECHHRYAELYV
Procedure: (§1) Aliquots of microspheres with immobilized anti-myc monoclonal antibodies, prepared as described above, were added individually to 1 mL of the each of these protein supernatants. The microspheres were gently mixed, incubated for two hours at 25° C., washed twice with 1 mL of DBPS, centrifuged to remove the supernatant and finally resuspended in 1 mL of DPBS buffer. Forty eight μL of anti-myc IgG coupled microspheres from individual reactions with full length human LEPR and with each of the human LEPR domain proteins were withdrawn and mixed together in 3.6 mL of PBS+20 mg/mL BSA+0.05% sodium azide (blocking buffer).
(§2) From this mixed pool, 75 μL of microspheres were plated per well on a 96 well filter plate (Millipore, Cat. No: MSBVN1250) and mixed with 25 μL of individual anti-human LEPR monoclonal antibodies (0.5 or 5 μg/mL), incubated for two hours at 25° C. and then washed twice with 200 μL of DPBS with 0.05% Tween 20 (washing buffer). […] After 30 minutes, the samples were washed twice with 200 μL of washing buffer and resuspended in 150 μL of wash buffer. The Median Fluorescence intensity (MFI) of the microspheres was measured in a Luminex Analyzer.

[2] = molecular target: T2, human LEPR CRH1-Ig (D2,D3)-MMH (human, UniProt P48357 230-427, limits assumed)
T2 construct: domain: CRH1-Ig (D2,D3); Transiently expressed, captured from supernatant on anti-myc beads
T2 sequence (looked up): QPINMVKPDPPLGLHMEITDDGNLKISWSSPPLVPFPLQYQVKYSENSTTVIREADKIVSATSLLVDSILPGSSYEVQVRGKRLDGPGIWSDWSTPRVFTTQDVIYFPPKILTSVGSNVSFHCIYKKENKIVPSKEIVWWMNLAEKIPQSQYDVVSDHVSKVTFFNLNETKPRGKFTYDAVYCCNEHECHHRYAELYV
Procedure: as §1, §2

[3] = molecular target: T3, human LEPR Ig-CRH2-FNIII-MMH (human, UniProt P48357 330-839, limits assumed)
T3 construct: domain: Ig-CRH2-FNIII; Transiently expressed, captured from supernatant on anti-myc beads
T3 sequence (looked up): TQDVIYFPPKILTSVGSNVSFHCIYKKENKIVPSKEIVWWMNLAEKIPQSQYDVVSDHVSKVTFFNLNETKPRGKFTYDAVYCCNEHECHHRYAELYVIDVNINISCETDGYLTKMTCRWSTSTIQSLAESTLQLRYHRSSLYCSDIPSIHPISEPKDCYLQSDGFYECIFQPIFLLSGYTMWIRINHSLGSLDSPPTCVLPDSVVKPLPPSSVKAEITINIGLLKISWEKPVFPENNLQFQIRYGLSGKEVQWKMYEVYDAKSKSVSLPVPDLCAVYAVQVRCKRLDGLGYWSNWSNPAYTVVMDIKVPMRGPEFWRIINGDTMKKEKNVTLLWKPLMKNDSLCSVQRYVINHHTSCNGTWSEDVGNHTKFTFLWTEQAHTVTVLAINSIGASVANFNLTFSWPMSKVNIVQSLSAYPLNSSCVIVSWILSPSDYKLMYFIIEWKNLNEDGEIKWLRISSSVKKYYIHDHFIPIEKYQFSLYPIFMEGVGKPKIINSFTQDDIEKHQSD
Procedure: as §1, §2

human LEPR CRH2-MMH = molecular target: T4, human LEPR CRH2-MMH (human, UniProt P48357 428-634, limits assumed)
T4 construct: domain: CRH2; Transiently expressed, captured from supernatant on anti-myc beads
T4 sequence (looked up): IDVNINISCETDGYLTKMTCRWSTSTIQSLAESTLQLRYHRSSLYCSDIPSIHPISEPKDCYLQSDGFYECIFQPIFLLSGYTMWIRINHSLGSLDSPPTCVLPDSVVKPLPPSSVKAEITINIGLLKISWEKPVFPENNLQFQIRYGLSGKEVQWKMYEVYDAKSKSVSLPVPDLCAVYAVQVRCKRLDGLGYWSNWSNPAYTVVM
Procedure: as §1, §2

[4] = molecular target: T5, human LEPR CRH1 (D1,D2)-MMH (human, UniProt P48357 22-339, limits assumed)
T5 construct: domain: CRH1 (D1,D2); Transiently expressed, captured from supernatant on anti-myc beads
T5 sequence (looked up): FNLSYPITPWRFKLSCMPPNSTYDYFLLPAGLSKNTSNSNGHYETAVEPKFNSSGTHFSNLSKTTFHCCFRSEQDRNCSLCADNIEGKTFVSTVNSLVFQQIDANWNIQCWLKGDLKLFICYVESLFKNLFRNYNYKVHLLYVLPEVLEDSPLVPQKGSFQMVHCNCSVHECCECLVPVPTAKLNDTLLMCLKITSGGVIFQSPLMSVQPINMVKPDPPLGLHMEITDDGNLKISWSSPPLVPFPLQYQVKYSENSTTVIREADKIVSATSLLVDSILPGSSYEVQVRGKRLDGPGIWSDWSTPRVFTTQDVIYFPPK
Procedure: as §1, §2

Luminex MFI [1]: 461 MFI | Luminex MFI [2]: 25 MFI | Luminex MFI [3]: 11200 MFI | Luminex MFI (human LEPR CRH2-MMH): 8 MFI | Luminex MFI [4]: 665 MFI
B1: H4H18462P2 (antibody, human IgG4, V domains shown)
VH: EVQLVESGGDLVQPGRSLRLSCAASGFTFSSFAMSWVRQAPGRGLEWVSSLSDSGDNTYYADSVKGRFTISRDNSKNTLYLQMNNLRAEDTAVYYCAKDLFSGWLFHGFDVWGQGTMVTVSS
VL: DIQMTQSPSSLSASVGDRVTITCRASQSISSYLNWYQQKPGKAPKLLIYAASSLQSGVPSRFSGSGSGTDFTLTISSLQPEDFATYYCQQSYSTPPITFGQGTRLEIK
notes: H4H prefix: human IgG4 Fc
